From article PMC2447818 come the findings set out here.

The target of the assay is GFP-VIM (lens vimentin fused to green fluorescence protein) (UniProt P08670). In words: FRET or BRET; FRET acceptor photobleaching by confocal laser scanning microscopy in living HeLa cells, 48 h after co-transfection; GFP fusion as donor, RFP fusion as acceptor; RFP bleached at 543 nm for 45 s in a region of interest or a whole cell; E=1 – F(GFP-min)/F(GFP-max).
Chain of GFP-VIM (lens vimentin fused to green fluorescence protein) (P08670 2-466): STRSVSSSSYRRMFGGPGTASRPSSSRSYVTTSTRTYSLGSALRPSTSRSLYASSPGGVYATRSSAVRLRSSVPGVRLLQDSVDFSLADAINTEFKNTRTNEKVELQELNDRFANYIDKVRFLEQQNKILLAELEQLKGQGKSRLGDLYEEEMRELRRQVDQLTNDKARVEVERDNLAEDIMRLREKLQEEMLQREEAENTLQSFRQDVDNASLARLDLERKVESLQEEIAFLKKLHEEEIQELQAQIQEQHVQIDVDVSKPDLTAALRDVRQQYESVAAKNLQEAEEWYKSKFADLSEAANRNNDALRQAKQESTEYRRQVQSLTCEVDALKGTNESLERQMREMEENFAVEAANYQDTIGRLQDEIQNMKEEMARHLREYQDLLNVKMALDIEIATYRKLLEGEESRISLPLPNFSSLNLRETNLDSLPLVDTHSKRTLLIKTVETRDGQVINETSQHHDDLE

Chain of RFP-αB (wild-type αB-crystallin fused to red fluorescence protein) (P02511 whole entry, the tested form may be a part): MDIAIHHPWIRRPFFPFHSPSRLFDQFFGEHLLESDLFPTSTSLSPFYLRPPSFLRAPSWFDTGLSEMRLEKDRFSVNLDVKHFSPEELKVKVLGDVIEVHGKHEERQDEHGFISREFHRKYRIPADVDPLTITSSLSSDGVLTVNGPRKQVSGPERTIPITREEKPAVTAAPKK

As to “RFP-αB (wild-type αB-crystallin fused to red fluorescence protein) (from UniProt P02511 1-175) (natural protein)”, the FRET efficiency (one representative cell) amounted to 9.5%.
